Experimental data published in the DeepSol protein solubility set.

Experiment: soluble on expression in E. coli; label from the status in PepcDB or PDB records

| Sequence | soluble on expression in E. coli |
| --- | --- |
| MTDYAHKMSLDLRMIDLERYSDHIDNKASHCAKMLNDYYQKFDAQKGTQFVFSDLGTYKPGGEFNVYSEIKRKLVEDYHIPSHEVRFIQECKNEKAKKAMVDAMNRGDIRIIFGSTSMLGTGVNAQQRAVAIHHLDTPWRPSDLEQRNGRAVRKGNMIAKEFADNKVDVIIYAVERSLDSYKFNLLHNKQLFINQLKTNTLGSRTIDEGSMDEDGGMNFSEYVAVLSGNTNLLEKAKLDKKIATLESERKNFLRERDTATGKLAEIDSSVSFHSDKIKEAKEDLACFEKRVERDAEGLPINKLTIKGVEGSTDIKVIAARLQEIEEKARTKGEYNKIGEIYGFSIMVKTENSSKELFDCSSNRFFVKGQESIYYTYNNGKLASDPKLACQNFINALERIPKVIESHEKEKEKVSANKEVYMTIAGGSWKKEDELRSLKGQAAELDRKIALTLAPPEEEKETEEEKQVQEHGISGKEPIQETRYSAEPISHKQAEKTPPSEQVTPPPTRQPRSNEPGGYIETQMEIG | not soluble |
| MAITRESKNGEEFVGEVTFYEGVNMNVVVNFFTGLDHYEYAKLRFAHTAHTPPLIRASSTSASASASTSTSSSRPKKHYLEKNMEHLLKKLDILAFKQTIIESRSPTSDSIHHQDFVSNTDTAEYDDDDTKFF | not soluble |
| MSKQDLLLEIGLEEMPARFLNESMVQLGDKLTGWLKEKNITHGEVKLFNTPRRLAVFVKDVAEKQDDIKEEAKGPAKKIALDADGNWTKAAIGFSKGQGANVEDLYIKEVKGIEYVFVQKFQAGQETKSLLPELSGLITSLHFPKNMRWGNEDLRYIRPIKWIVALFGQDVIPFSITNVESGRTTQGHRFLGHEVSIESPSAYEEQLKGQHVIADPSVRKQMIQSQLETMAAENNWSIPVDEDLLDEVNHLVEYPTALYGSFESEFLSIPEEVLVTTMKEHQRYFPVKDKNGDLLPHFITVRNGNSHAIENVARGNEKVLRARLSDASFFYKEDQKLNIDANVKKLENIVFHEELGSLADKVRRVTSIAEKLAVRLQADEDTLKHVKRAAEISKFDLVTHMIYEFPELQGIMGEKYARMLGEDEAVAAAVNEHYMPRSAGGETPSTFTGAVVAMADKLDTIASFFSIGVIPTGSQDPYGLPRQASGIVAILLDRNWGISFEELLTFVQTDKENELLDFFTQRLKYVLNAEQIRHDVIDAVLESSELEPYSALHKAQVLEQKLGAPGFKETAEALGRVISISKKGVRGDIQPDLFENEYEAKLFDAYQTAKENLQENFSKKDYEAALASLAALKEPIDAYFDHTMVIADNESLKANRLAQMVSLADEIKSFANMNALI | not soluble |
| MGSDKIHHHHHHMLSNLVSEFPQHEPRPANAPRALEGIRVVDFTHFIAGPFATMMLADMGAEVIKIEAPGRGDEFRYYPPAHPQDESIGAPYLWANRNKRSIALDLKHEDGRRIARELIATADVVAENFSTGVMERLGLGYEACRESNPELIYCSVSAYGREGAFADRLGFDPVAQAESGFVSMNGYPDRLGVRALSPVMDISTAMMASNAILGALVARERSGKGQAVEVSLFDNAVLMTGYATVQHLFTGDEPQRHGNTSPDTCPSGVFKASDGAFYINCGNNKIFHRLASQVLEMPELAADPVLADRNGRIARRDELFRILDEAFIRHPWAYWQQRMRAASIPCGEVRSVGEALRSAEARERKLVSRLEHPDLGWLPNISLPFRFSETPMEDPSPAPRIGEHSRDILTHVLGYEDDSASALLDSGVVYSSVEKARAG | not soluble |
| MTDANYPIYGDIDGPIIMIGFGSIGRGTLPLIERHFNFDRTRLVVIDPREDIAAFLAERNIRHVQTHLTKENYKDVLKPLLKGVQGKGFCVNLSVDAASVDLMRICRKHGMLYIDTVVEPWPGFYFDADADNRARTNYSLRETMLKERARKPGGTTAVSTCGANPGMVSWFVKQALVNLAKDTGLDIEEPQSHDREGWAKLMQQLGVKGVHVAERDTQRAKEPKPFGAFWNTWSVEGFIAEGFQPAELGWGTHENWMPKNAKKQKKGSKAAIYLDQPGANTRVRTWCPGLGAQYGFLVTHNEAISISDYFTVRNDDGDVTYRPTCHYAYHPCNDAILSLHELFGNGGNPQPIQHVLGEDELVDGADELGVLLYGHDRNAYWYGSRLSLEEARSLAPSQNATGLQVSSAVLAGMAWAIENPEAGIVEADEMDYRRCLEVQRPYLGPVEGHYTDWTPLDGRPGLFPDNIDMSDPWQFRNILVRAAALEHHHHHH | soluble |
